Source: patent US20220073584A1 (AstraZeneca / MedImmune, published 2022)
Residue numbers refer to the chain shown, from its start. Ends that are not written are not given here.

T1: human RXFP1 receptor (human, UniProt Q9HBX9 1-757)
T1 sequence (looked up): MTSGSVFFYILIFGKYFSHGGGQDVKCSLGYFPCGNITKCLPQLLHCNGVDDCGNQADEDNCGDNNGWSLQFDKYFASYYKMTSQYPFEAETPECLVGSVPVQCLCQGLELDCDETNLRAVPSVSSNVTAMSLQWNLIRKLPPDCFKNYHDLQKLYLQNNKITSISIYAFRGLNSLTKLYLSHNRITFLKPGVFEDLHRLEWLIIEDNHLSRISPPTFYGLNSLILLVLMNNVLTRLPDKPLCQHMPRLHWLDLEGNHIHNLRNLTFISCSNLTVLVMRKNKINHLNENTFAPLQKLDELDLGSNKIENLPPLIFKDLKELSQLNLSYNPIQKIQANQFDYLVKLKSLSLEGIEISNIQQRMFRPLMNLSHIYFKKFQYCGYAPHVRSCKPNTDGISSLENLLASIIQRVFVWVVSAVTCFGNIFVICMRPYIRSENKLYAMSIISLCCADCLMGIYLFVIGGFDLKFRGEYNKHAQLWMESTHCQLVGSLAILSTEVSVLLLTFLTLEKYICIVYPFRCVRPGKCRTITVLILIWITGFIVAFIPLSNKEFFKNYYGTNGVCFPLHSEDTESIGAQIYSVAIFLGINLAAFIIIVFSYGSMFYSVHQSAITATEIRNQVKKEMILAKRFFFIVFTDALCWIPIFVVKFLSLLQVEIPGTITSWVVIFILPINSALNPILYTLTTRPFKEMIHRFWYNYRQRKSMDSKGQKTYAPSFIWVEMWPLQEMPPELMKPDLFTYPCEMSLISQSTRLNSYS

T2: mouse RXFP1 receptor (mouse, UniProt Q6R6I7 1-758)
T2 sequence (looked up): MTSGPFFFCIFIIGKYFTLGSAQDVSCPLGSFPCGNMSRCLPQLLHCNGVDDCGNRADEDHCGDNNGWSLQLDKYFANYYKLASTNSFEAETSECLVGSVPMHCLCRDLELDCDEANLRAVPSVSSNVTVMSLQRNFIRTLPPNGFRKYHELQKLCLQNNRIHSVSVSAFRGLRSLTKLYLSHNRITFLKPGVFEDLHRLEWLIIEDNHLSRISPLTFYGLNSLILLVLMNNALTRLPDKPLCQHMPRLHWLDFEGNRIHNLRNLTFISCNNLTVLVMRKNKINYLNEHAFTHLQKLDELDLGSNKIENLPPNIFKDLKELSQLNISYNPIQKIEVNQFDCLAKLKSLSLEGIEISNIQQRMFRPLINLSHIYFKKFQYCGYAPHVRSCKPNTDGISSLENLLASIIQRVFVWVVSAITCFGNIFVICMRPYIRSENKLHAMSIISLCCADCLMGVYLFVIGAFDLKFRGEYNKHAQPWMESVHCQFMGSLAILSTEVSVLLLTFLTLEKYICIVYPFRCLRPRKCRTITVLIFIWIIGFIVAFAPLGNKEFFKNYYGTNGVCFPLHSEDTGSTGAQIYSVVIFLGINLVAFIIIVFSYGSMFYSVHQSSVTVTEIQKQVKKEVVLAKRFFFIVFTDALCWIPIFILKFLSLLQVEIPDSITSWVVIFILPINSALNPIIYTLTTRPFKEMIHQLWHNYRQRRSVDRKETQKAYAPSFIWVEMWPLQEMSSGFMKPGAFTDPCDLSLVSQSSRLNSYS

B1: recombinant human Relaxin-2 (R&D Systems, catalogue number 6586-RN-025) (ligand)
chain 1: QLYSALANKCCHVGCTKRSLARFC
chain 2: DSWMEEVIKLCGRELVRAQIAICGMSTWS
modifications: not fully specified (bridges); ends and bridges not checked; also: two interchain and one intrachain disulfide bonds, positions not given here
B2: Fc-YTE-TM_hRLX2_15-15AA (Fc fusion)
chain: DKTHTCPPCPAPEFEGGPSVFLFPPKPKDTLYITREPEVTCVVVDVSHEDPEVKFNWYVDGVEVHNAKTKPREEQYNSTYRVVSVLTVLHQDWLNGKEYKCKVSNKALPASIEKTISKAKGQPREPQVYTLPPSRDELTKNQVSLTCLVKGFYPSDIAVEWESNGQPENNYKTTPPVLDSDGSFFLYSKLTVDKSRWQQGNVFSCSVMHEALHNHYTQKSLSLSPGKGGGGSGGGGSGGGGSQLYSALANKCCHVGCTKRSLARFCGGGGSGGGGSGGGGSSWMEEVIKLCGRELVRAQIAICGMSTWS
B3: Fc-YTE-FQQ_hRLX2_15-15AA (Fc fusion)
chain: B2 chain with E15Q, K102Q, S111P
B4: Fc-TMΔTHTΔK_hRLX2(BA)_21-15AA (Fc fusion)
chain: GGGSACPPCPAPEFEGGPSVFLFPPKPKDTLMISRTPEVTCVVVDVSHEDPEVKFNWYVDGVEVHNAKTKPREEQYNSTYRVVSVLTVLHQDWLNGKEYKCKVSNKALPASIEKTISKAKGQPREPQVYTLPPSREEMTKNQVSLTCLVKGFYPSDIAVEWESNGQPENNYKTTPPVLDSDGSFFLYSKLTVDKSRWQQGNVFSCSVMHEALHNHYTQKSLSLSPGGGGGSGGGGSGGGGSGGGGGSSWMEEVIKLCGRELVRAQIAICGMSTWSGGGGSGGGGSGGGGSQLYSALANKCCHVGCTKRSLARFC
B5: Fc-TMΔTHTΔK_hRLX2_21-15AA (Fc fusion)
chain: GGGSACPPCPAPEFEGGPSVFLFPPKPKDTLMISRTPEVTCVVVDVSHEDPEVKFNWYVDGVEVHNAKTKPREEQYNSTYRVVSVLTVLHQDWLNGKEYKCKVSNKALPASIEKTISKAKGQPREPQVYTLPPSREEMTKNQVSLTCLVKGFYPSDIAVEWESNGQPENNYKTTPPVLDSDGSFFLYSKLTVDKSRWQQGNVFSCSVMHEALHNHYTQKSLSLSPGGGGGSGGGGSGGGGSGGGGGSQLYSALANKCCHVGCTKRSLARFCGGGGSGGGGSGGGGSSWMEEVIKLCGRELVRAQIAICGMSTWS
B6: hRLX2(BA)-Fc-TMΔTHTΔK_15-24AA (Fc fusion)
chain: SWMEEVIKLCGRELVRAQIAICGMSTWSGGGGSGGGGSGGGGSQLYSALANKCCHVGCTKRSLARFCAAAGGGGSGGGGSGGGGSGGGGSACPPCPAPEFEGGPSVFLFPPKPKDTLMISRTPEVTCVVVDVSHEDPEVKFNWYVDGVEVHNAKTKPREEQYNSTYRVVSVLTVLHQDWLNGKEYKCKVSNKALPASIEKTISKAKGQPREPQVYTLPPSREEMTKNQVSLTCLVKGFYPSDIAVEWESNGQPENNYKTTPPVLDSDGSFFLYSKLTVDKSRWQQGNVFSCSVMHEALHNHYTQKSLCLSPG
B7: hRLX2-Fc-TMΔTHTΔK_15-24AA (Fc fusion)
chain: QLYSALANKCCHVGCTKRSLARFCGGGGSGGGGSGGGGSSWMEEVIKLCGRELVRAQIAICGMSTWSAAAGGGGSGGGGSGGGGSGGGGSACPPCPAPEFEGGPSVFLFPPKPKDTLMISRTPEVTCVVVDVSHEDPEVKFNWYVDGVEVHNAKTKPREEQYNSTYRVVSVLTVLHQDWLNGKEYKCKVSNKALPASIEKTISKAKGQPREPQVYTLPPSREEMTKNQVSLTCLVKGFYPSDIAVEWESNGQPENNYKTTPPVLDSDGSFFLYSKLTVDKSRWQQGNVFSCSVMHEALHNHYTQKSLSLSPG

The binders below were run against T1, human RXFP1 receptor (assay: cell-based or functional assay).

Point of comparison: B3, “EC50 (M), stimulation of cAMP production (HitHunter cAMP assay) in CHO-K1 RXFP1 Gs cells” value 4.56e-09 M. Against it:
- B1 — 43-fold lower, 1.06e-10 M
- B2 — within 1.5-fold, 5.39e-09 M

The binders below were run against T2, mouse RXFP1 receptor (assay: cell-based or functional assay).

Point of comparison: B5, “mRXFP1 EC50 (M), cAMP HTRF assay in CHO-K1 mRXFP1 Gs cells” value 2.52e-09 M. Against it:
- B1 — 38-fold lower, 6.68e-11 M
- B4 — 3.5-fold higher, 8.82e-09 M
- B6 — 2.9-fold lower, 8.78e-10 M
- B7 — within 1.5-fold, 2.23e-09 M

These binders were tested against human RXFP2 (human, UniProt Q8WXD0 1-754) (assay: cell-based or functional assay).
Sequence of human RXFP2 (Q8WXD0 whole entry): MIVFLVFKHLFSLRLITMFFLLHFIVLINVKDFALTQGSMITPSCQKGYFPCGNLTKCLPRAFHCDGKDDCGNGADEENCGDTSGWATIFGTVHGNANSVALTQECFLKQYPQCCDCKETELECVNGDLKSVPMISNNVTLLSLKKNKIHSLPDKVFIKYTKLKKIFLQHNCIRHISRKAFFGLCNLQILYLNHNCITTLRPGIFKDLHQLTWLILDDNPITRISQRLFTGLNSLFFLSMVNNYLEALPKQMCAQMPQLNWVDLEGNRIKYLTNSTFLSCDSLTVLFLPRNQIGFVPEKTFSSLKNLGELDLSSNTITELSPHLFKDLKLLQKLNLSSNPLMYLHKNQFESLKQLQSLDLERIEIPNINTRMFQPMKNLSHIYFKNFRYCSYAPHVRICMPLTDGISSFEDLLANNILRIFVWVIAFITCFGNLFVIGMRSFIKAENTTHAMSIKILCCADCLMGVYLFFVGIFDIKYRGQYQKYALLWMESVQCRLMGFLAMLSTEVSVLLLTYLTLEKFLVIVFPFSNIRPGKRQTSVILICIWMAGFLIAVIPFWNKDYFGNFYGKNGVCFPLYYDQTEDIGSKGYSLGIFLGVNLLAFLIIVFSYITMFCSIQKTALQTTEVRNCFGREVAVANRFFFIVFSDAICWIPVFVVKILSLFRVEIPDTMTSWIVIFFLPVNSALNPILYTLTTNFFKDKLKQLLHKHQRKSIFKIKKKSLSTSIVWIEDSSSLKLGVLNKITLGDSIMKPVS

Point of comparison: B1, “hRXFP2 EC50 (M), cAMP HTRF assay in CHO-K1 RXFP2 Gs cells” value 1.46e-07 M. Against it:
- B4 — higher, > 8.22e-06 M
- B5 — higher, > 6.78e-06 M
- B6 — higher, > 4.33e-06 M
- B7 — higher, > 3.09e-07 M

Target: T1, human RXFP1 receptor
Assay: cell-based or functional assay
Remark: another data set of the same source

Point of comparison: B5, “hRXFP1 EC50 (M), cAMP HTRF assay in CHO-K1 RXFP1 Gs cells” value 2.6e-09 M. Against it:
- B1 — 19-fold lower, 1.38e-10 M
- B4 — 6-fold higher, 1.56e-08 M
- B6 — 2.3-fold lower, 1.13e-09 M
- B7 — 1.9-fold higher, 4.97e-09 M
